Measurements published in patent US20250283065A1, “TRUNCATED POLYPEPTIDES HAVING PROTEIN LIGASE ACTIVITY AND METHODS OF PRODUCTION THEREOF” (NANYANG TECHNOLOGICAL UNIVERSITY, priority 2022, published 2025).

B1: OaAEP1b-C247A-Δ351 with His-tag and TEV cleavage sequence (construct for recombinant expression) (protein)
chain: MHHHHHHSSGVDLGTENLYFQSVGTRWAVLIAGSKGYANYRHQAGVCHAYQILKRGGLKDENIVVFMYDDIAYNESNPRPGVIINSPHGSDVYAGVPKDYTGEEVNAKNFLAAILGNKSAITGGSGKVVDSGPNDHIFIYYTDHGAAGVIGMPSKPYLYADELNDALKKKHASGTYKSLVFYLEACESGSMFEGILPEDLNIYALTSTNTTESSWCYYCPAQENPPPPEYNVCLGDLFSVAWLEDSDVQNSWYETLNQQYHHVDKRISHASHATQYGNLKLGEEGLFVYMGSNPANDNYTSLDGNALTPSSIVVNQRDAD
B2: acid-activated OaAEP1b-C247A (protein)
chain: MVRYLAGAVLLLVVLSVAAAVSGARDGDYLHLPSEVSRFFRPQETNDDHGEDSVGTRWAVLIAGSKGYANYRHQAGVCHAYQILKRGGLKDENIVVFMYDDIAYNESNPRPGVIINSPHGSDVYAGVPKDYTGEEVNAKNFLAAILGNKSAITGGSGKVVDSGPNDHIFIYYTDHGAAGVIGMPSKPYLYADELNDALKKKHASGTYKSLVFYLEACESGSMFEGILPEDLNIYALTSTNTTESSWAYYCPAQENPPPPEYNVCLGDLFSVAWLEDSDVQNSWYETLNQQYHHVDKRISHASHATQYGNLKLGEEGLFVYMGSNPANDNYTSLDGNALTPSSIVVNQRDADLLHLWEKFRKAPEGSARKEEAQTQIFKAMSHRVHIDSSIKLIGKLLFGIEKCTEILNAVRPAGQPLVDDWACLRSLVGTFETHCGSLSEYGMRHTRTIANICNAGISEEQMAEAASQACASIP
B3: acid-activated OaAEP1b-C247A: full-length OaAEP1b-C247A proenzyme expressed in E. coli and activated at low pH according to reference [17] (protein, listed as Oldenlandia affinis)
chain: MVRYLAGAVLLLVVLSVAAAVSGARDGDYLHLPSEVSRFFRPQETNDDHGEDSVGTRWAVLIAGSKGYANYRHQAGVCHAYQILKRGGLKDENIVVFMYDDIAYNESNPRPGVIINSPHGSDVYAGVPKDYTGEEVNAKNFLAAILGNKSAITGGSGKVVDSGPNDHIFIYYTDHGAAGVIGMPSKPYLYADELNDALKKKHASGTYKSLVFYLEACESGSMFEGILPEDLNIYALTSTNTTESSWAYYCPAQENPPPPEYNVCLGDLFSVAWLEDSDVQNSWYETLNQQYHHVDKRISHASHATQYGNLKLGEEGLFVYMGSNPANDNYTSLDGNALTPSSIVVNQRDADLLHLWEKFRKAPEGSARKEEAQTQIFKAMSHRVHIDSSIKLIGKLLFGIEKCTEILNAVRPAGQPLVDDWACLRSLVGTFETHCGSLSEYGMRHTRTIANICNAGISEEQMAEAASQACASIP
modifications: acid-activated

Experiments:
OaAEP1b-C247A-Δ351 = experiment: Active site titration by FRET ligation assay with covalent inhibitor; format: biochemical, Oldenlandia affinis; conditions: enzyme 280 nM, 1 hour incubation
Protocol: Active site titration: The procedure described in reference was followed. The enzyme preparation was diluted to a concentration of 280 nM using a buffer containing 20 mM sodium phosphate at pH 6.5, 5 mM 2-Mercaptoethanol. Solutions containing serial twofold dilution of inhibitor YVAD-cmk were prepared in a black microtiter plate (Greiner Bio-One) using buffer as diluent. The enzyme was subsequently added to the wells containing the inhibitor to a final volume of 50 μL. The plate was incubated for 1 hour at room temperature before adding FRET peptides (PIE {EDANS} YNAL (SEQ ID NO:18) and GIK {DABSYL} SIP (SEQ ID NO: 19)), which were mixed at a molar ratio of 1:3 giving a final enzyme: substrate molar ratio of 1:200. The EDANS fluorescence signal was measured with an excitation wavelength of 336 nm and an emission wavelength of 490 nm. Relative fluorescence units (RFU) of quenched EDANS signal were plotted against time. The value of the initial velocity (Vi) was determined from the slope of the RFU (t) curve. The measured value of Vi was subsequently normalized by dividing with the initial rate obtained in the absence of inhibitor (control V0). The calculated Vi/V0 ratio was plotted against inhibitor concentrations, generating an inhibition curve. […]

[1] = target: OaAEP1b-C247A-Δ351 with His-tag and TEV cleavage sequence (construct for recombinant expression) (Oldenlandia affinis); experiment: cell-based or functional assay
[2] = target: mixture of FRET peptides A: PIE{EDANS}YNAL and B: GIK{DABSYL}SIP at a molar ratio of 1:3
[3] = test system: peptides PIE {EDANS} YNAL and GIK {DABSYL} SIP; experiment: FRET ligation kinetics assay; format: biochemical; conditions: 50 nM enzyme, peptides A:B molar ratio 1:3
Protocol: Kinetics assay: The kinetic properties of the peptide ligation of the constitutively active PAL were studied using a FRET assay. Two peptides synthesized by GenScript: PIE {EDANS} YNAL (SEQ ID NO:18) and GIK {DABSYL} SIP (SEQ ID NO:19) were mixed at a molar ratio of 1:3. Upon ligation, the peptide PIE {EDANS} YNGIK {DABSYL} SIP (SEQ ID NO: 20) is produced. 50 nM of PAL enzyme is mixed with various concentrations of the peptide mixture. The EDANS fluorescence signal was measured with an excitation wavelength of 336 nm and an emission wavelength of 490 nm. A reduction in EDANS fluorescence signal occurs upon ligation of the two peptides due to quenching by DABSYL. The variation in fluorescence signal for each substrate mixture concentration was measured after addition of the enzyme to initiate the reaction. The rate of decrease in fluorescence signal during the first 30 seconds after enzyme addition was plotted against the substrate concentration to obtain the Vmax, kcat and KM values for each enzyme.
Next, using a FRET ligation assay, the ligase activity of the truncated OaAEP1b-C247A-Δ351 was compared with its acid-activated zymogen counterpart. Briefly, 50 nM of either enzyme was added to a mixture of two peptides A: PIE (EDANS) YNAL (SEQ ID NO:18) and B: GIK (DABSYL) SIP (SEQ ID NO:19). These two peptides were mixed in a A:B molar ratio of 1:3. Upon ligation, the fluorescence signal emission of the EDANS moiety of A (λem=490 nm) becomes quenched by the DABSYL moiety of B. (FIG. 7A). This assay the ligation rate to be followed between both peptides in real-time, giving access to the kinetic parameters of the truncated enzyme.

| Molecule | Km (FRET ligation assay) [2] [µM] | Vmax (FRET ligation assay) [2] [RFU/see] | further results |
| --- | --- | --- | --- |
| ac-YVAD-cmk [reference compound] | – | – | minimal concentration of inhibitor necessary for a complete inhibition of the ligation activity (OaAEP1b-C247A-Δ351): 150 nM |
| YVAD (N-terminal acetyl; C-terminal chloromethylketone (cmk)) [Ac-YVAD-cmk] | – | – | fraction of the measured protein concentration that is active and amenable to complete inhibition (active site titration) [1]: 53%; minimal concentration of inhibitor necessary for a complete inhibition of the ligation activity (active site titration, enzyme at 280 nM) [1]: 150 nM |
| B1 | 8.16 | 6.40 | – |
| B2 | 8.34 | 14.32 | – |
| B3 | – | – | Vmax [3]: 14.32 RFU/see |
